Data published in PMC4865440.

Target: recombinant gp120 from HIV-1 strain IIIB (HIV-1 strain IIIB) (UniProt P04578)

griffithsin produced in rice endosperm (^OSGRFT), His6-tagged (from UniProt P84801 1-121) (natural protein)
EC50 of whole-cell HIV neutralization assay (XTT viability of CEM-SS cells challenged with HIV-1RF), purified ^OSGRFT: 0.27 nM

griffithsin produced in Escherichia coli (^ECGRFT) (from UniProt P84801 1-121) (natural protein)
EC50 of whole-cell HIV neutralization assay (XTT viability of CEM-SS cells challenged with HIV-1RF), purified ^ECGRFT: 0.33 nM
